Data from patent US9051392 (dated 2015).
Numbering of substitutions follows the chain as printed. Names may count otherwise.

T1: Fas Pt 2 (deletion 52-96) (human, UniProt P25445)
T1 chain: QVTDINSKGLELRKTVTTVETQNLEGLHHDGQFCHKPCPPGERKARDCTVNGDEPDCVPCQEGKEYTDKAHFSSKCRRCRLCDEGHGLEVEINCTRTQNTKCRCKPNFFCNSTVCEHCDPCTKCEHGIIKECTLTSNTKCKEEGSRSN

T2: Fas (human, UniProt P25445)
T2 chain: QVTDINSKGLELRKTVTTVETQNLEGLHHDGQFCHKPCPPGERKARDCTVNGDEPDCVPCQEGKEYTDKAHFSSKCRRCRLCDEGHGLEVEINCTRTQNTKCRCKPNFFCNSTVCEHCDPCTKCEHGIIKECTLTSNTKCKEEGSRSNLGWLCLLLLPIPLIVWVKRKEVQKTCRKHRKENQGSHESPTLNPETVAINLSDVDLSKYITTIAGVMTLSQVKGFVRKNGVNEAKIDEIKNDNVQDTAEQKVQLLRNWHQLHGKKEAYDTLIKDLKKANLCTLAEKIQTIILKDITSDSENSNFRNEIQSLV

T3: p60ΔCD-GFP-HA (human, UniProt P19438)
T3 chain: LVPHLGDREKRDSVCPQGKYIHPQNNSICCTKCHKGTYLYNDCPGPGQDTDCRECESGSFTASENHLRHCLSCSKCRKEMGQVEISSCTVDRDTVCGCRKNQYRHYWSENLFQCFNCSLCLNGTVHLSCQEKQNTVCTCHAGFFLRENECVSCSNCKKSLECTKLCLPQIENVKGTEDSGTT

T4: HA-Fas 1-210:GFP (human, UniProt P25445)
T4 chain: T1 chain

B1: Fas ligand (trimerized) (protein)
chain: PSPPPEKKELRKVAHLTGKSNSRSMPLEWEDTYGIVLLSGVKYKKGGLVINETGLYFVYSKVYFRGQSCNNLPLSHKVYMRNSKYPQDLVMMEGKMMSYCTTGQMWARSSYLGAVFNLTSADHLYVNVSELSLVNFEESQTFFGLYKL
B2: HVEMΔCD:GFP (protein)
chain: LPSCKEDEYPVGSECCPKCSPGYRVKEACGELTGTVCEPCPPGTYIAHLNGLSKCLQCQMCDPAMGLRASRNCSRTENAVCGCSPGHFCIVQDGDHCAACRAYATSSPGQRVQKGGTESQDTLCQNCPPGTFSPNGTLEECQHQTKCSWLVTKAGAGTSSSHWV
B3: p60ΔCD K32A (protein)
chain: T3 chain with K32A
B4: p60ΔCD KY19/20AA (protein)
chain: T3 chain with K19A, Y20A
B5: Fas deletion 1-43 (protein)
chain: T1 chain
B6: Fas deletion 1-66 (protein)
chain: T1 chain

Columns and labels:
Fas deletion 1-66 = biological target: B6; assay: FACS
[1] = biological target: T1, Fas Pt 2 (deletion 52-96); assay: FACS
Fas = biological target: T2, Fas; assay: other (co-immunoprecipitation)
p60ΔCD-GFP-HA = biological target: T3, p60ΔCD-GFP-HA; assay: other (co-immunoprecipitation)
HA-Fas 1-210:GFP = biological target: T4, HA-Fas 1-210:GFP; assay: other (co-immunoprecipitation)

Binder | binding result (p60ΔCD-GFP-HA) | binding result (HA-Fas 1-210:GFP) | other results
B1 | – | – | binding result (Fas deletion 1-66): no binding; binding result [1]: no binding
B2 | – | – | binding result (Fas): no binding
B3 | no binding | – | –
B4 | no binding | – | –
B5 | – | no binding | –
B6 | – | no binding | –
